B1: FtsZ (native) (natural protein, Escherichia coli, UniProt P0A9A6 1-383, looked up)
chain: MFEPMELTNDAVIKVIGVGGGGGNAVEHMVRERIEGVEFFAVNTDAQALRKTAVGQTIQIGSGITKGLGAGANPEVGRNAADEDRDALRAALEGADMVFIAAGMGGGTGTGAAPVVAEVAKDLGILTVAVVTKPFNFEGKKRMAFAEQGITELSKHVDSLITIPNDKLLKVLGRGISLLDAFGAANDVLKGAVQGIAELITRPGLMNVDFADVRTVMSEMGYAMMGSGVASGEDRAEEAAEMAISSPLLEDIDLSGARGVLVNITAGFDLRLDEFETVGNTIRAFASDNATVVIGTSLDPDMNDELRVTVVATGIGMDKRPEITLVTNKQVQQPVMDRYQQHGMAPLTQEQKPVAKVVNDNAPQTAKEPDYLDIPAFLRKQAD
notes: FtsZ, tubulin-like GTPase and cell division protein of Escherichia coli; native (no tag named); Assembles into polymers with GTP; also called Native FtsZ; wild type FtsZ; source: E. coli BL21 (λde3), purified as described (Camberg et al., 2009)
B2: ZapE (N-terminal six histidine fusion protein) (enzyme, Escherichia coli, UniProt P64612 1-375, looked up)
chain: MQSVTPTSQYLKALNEGSHQPDDVQKEAVSRLEIIYQELINSTPPAPRTSGLMARVGKLWGKREDTKHTPVRGLYMWGGVGRGKTWLMDLFYQSLPGERKQRLHFHRFMLRVHEELTALQGQTDPLEIIADRFKAETDVLCFDEFFVSDITDAMLLGGLMKALFARGITLVATSNIPPDELYRNGLQRARFLPAIDAIKQHCDVMNVDAGVDYRLRTLTQAHLWLSPLHDETRAQMDKLWLALAGGKRENSPTLEINHRPLATMGVENQTLAVSFTTLCVDARSQHDYIALSRLFHTVMLFDVPVMTRLMESEARRFIALVDEFYERHVKLVVSAEVPLYEIYQGDRLKFEFQRCLSRLQEMQSEEYLKREHLAG
B3: ZapE (H6-ZapE) (Escherichia coli K-12) (protein)
chain: B2 chain
notes: full-length, N-terminal 6xHis tag kept, pET-28a, expressed in E. coli BL21 (λde3); calculated mass 44,583 Da; predominantly monomer
B4: ZapE(K84A) (N-terminal histidine fusion protein) (enzyme, Escherichia coli, UniProt P64612 1-375, looked up)
chain: B2 chain with K84A
notes: ZapE of Escherichia coli with the Walker A substitution K84A (defective for ATP hydrolysis); pET-28a, site-directed mutagenesis; also called H6-ZapE(K84A); His6-zapE(K84A); source: E. coli BL21 (λde3), purified (cobalt column, sephadex G25); not shown: His6, N-terminal, kept

The target in series [1] is ZapE (N-terminal six histidine fusion protein) (Escherichia coli) (UniProt P64612). The series is described as follows: co-sedimentation; phospholipid recruitment: Gfp-FtsZ (3 μM) with GTP (4 mM) added to ZapE (1 μM) pre-assembled with SUVs (500 μg ml^-1) and ATP (4 mM); 50 mM HEPES pH 7.5, 150 mM KCl, 20 mM MgCl2; 21,000 × g for 15 min; percent in the pellet by densitometry; 6% of Gfp-FtsZ in the pellet without ….

Series [2] deals with the molecule itself. Put plainly: co-sedimentation; FtsZ (6 μM) with GTP (2 mM) or without GTP, with or without ZapE or ZapE(K84A) (8 μM), with or without ATP or ATPγS (4 mM); 50 mM HEPES pH 7.5, 150 mM KCl, 20 mM MgCl2, 23°C, 10 min; 250,000 × g for 20 min; supernatants and pellets by SDS-PAGE and Coomassie.
Series [3] has as its target B1. Put plainly: cell-based or functional assay.
Series [4] deals with Histidine-tagged Gfp-FtsZ (Escherichia coli). The series is described as follows: filter retention (ultrafiltration, 100 kDa filter); ZapE or ZapE(K84A) (5 μM) with Gfp-FtsZ (10 μM) and ATP (4 mM), without GTP; 50 mM MES pH 6.5, 100 mM KCl, 10 mM MgCl2, 23°C, 10 min; filtrate and retentate by SDS-PAGE and densitometry; ZapE alone retained 33.4%, ZapE(K84A) alone 50.3%.
Substrate in series [5]: Nc1ncnc2c1ncn2[C@@H]1O[C@H](COP(=O)(O)OP(=O)(O)OP(=O)(O)O)[C@@H](O)[C@H]1O
The series is described as follows: phosphate release (Biomol Green), Michaelis-Menten fit. It counts as biochemical, Escherichia coli. Particulars: 12 μM ZapE, ATP 0 to 5 mM, 50 mM HEPES pH 7.5, 150 mM KCl, 20 mM MgCl2, 23°C.

Series [6] addresses B1. The series is described as follows: co-sedimentation; FtsZ (6 μM) with GTP (2 mM) or without GTP, with or without ZapE or ZapE(K84A) (8 μM), with or without ATP or ATPγS (4 mM); 50 mM HEPES pH 7.5, 150 mM KCl, 20 mM MgCl2, 23°C, 10 min; 250,000 × g for 20 min; supernatants and pellets by SDS-PAGE and Coomassie. Particulars: both partners purified.

Positions count from the first letter of the chain named. In names and notes the source's numbering stands.

By Km is commonly meant the concentration of substrate that gives half-maximal velocity.

In series [1], Histidine-tagged Gfp-FtsZ displayed a percent of total Gfp-FtsZ in the phospholipid pellet of 21.6%.
B1: in series [2], the binding result is recorded as “binds”.
For B2, the “maximum 90° light scatter of FtsZ (8 μM) after addition of GTP (1.5 mM), ZapE 0 to 8 μM with ATP (4 mM)” value in the series with FtsZ (native) [3] was above 2 fold. Moreover, the percent of total ZapE retained on the filter in series [4] is 63.4%.
With B3, the Km in series [5] is 1700 ± 360 µM.
Take B4: in the series with FtsZ (native) [6], the binding result was “binds”. Moreover, the percent of ZapE(K84A) retained on the filter in series [4] was found to be 80.2%.

The record behind these values is article PMC8503651, “The Stress-Active Cell Division Protein ZapE Alters FtsZ Filament Architecture to Facilitate Division in Escherichia coli” (Frontiers in Microbiology, 2021).
